Measurements published in publication PMC9976917.

Columns and labels:
Experiment in all cases: fluorescence polarization
ZNF410 NT = biological target: T1, ZNF410 NT (Homo sapiens, UniProt Q86VK4 1-216)
T1 sequence: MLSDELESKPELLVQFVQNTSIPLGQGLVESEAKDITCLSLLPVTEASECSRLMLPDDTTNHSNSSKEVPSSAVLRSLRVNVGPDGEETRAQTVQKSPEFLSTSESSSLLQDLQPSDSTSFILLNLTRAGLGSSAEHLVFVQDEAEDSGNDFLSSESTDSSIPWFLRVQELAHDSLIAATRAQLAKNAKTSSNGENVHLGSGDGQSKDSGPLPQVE

ZNF410 FL DEAED-to-AAAAA = biological target: T2, ZNF410 FL DEAED-to-AAAAA (Homo sapiens, UniProt Q86VK4 1-478, D143A;E144A;E146A;D147A)
T2 sequence: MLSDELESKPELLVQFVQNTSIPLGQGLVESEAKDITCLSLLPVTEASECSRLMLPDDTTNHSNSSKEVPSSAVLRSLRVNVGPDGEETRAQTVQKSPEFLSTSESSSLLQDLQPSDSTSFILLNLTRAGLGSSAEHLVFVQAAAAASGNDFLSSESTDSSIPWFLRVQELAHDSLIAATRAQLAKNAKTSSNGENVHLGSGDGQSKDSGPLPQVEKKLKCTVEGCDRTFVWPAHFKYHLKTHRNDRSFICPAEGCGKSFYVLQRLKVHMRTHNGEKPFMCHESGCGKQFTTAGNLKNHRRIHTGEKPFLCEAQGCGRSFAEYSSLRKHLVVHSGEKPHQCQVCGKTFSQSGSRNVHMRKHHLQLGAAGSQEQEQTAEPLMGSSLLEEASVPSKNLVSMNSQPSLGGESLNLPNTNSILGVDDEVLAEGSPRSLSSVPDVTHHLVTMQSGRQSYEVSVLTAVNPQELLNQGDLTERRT

[1] = biological target: T3, ZNF410 FL seven S/T-to-D/E (Homo sapiens, UniProt Q86VK4 1-478, S148D;S154D;S155D;S157D;T158E;S160D;S161D)
T3 sequence: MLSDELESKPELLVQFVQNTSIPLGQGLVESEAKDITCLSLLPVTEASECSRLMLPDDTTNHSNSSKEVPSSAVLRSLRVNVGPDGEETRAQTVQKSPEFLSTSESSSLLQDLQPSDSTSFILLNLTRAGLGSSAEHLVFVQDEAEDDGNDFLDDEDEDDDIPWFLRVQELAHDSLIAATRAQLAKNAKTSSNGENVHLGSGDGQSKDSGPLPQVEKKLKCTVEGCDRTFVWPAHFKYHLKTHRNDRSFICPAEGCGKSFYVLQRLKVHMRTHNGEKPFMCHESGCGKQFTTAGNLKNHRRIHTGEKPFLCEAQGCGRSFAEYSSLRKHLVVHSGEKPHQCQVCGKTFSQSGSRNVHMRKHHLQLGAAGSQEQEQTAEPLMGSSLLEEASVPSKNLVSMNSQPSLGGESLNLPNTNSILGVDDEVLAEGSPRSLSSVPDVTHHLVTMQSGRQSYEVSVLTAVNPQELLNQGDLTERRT

B1: FAM 17-bp ZNF410 motif duplex (dsDNA)
DNA 1: CACATCCCATAATAATG
DNA 2: CATTATTATGGGATGTG
Q: Does B1 bind (ZNF410 NT)?
A: no binding

Q: What about the binding signal (ZNF410 FL DEAED-to-AAAAA) of the same binder?
A: > 4 fold higher affinity than wild-type FL

Q: And the binding signal [1]?
A: > 6 fold lower affinity than wild-type FL
